For this test, the target named is GFP-PNUTS^W726A-HA (non-PP1 binding mutant) (Drosophila). In words: affinity purification with mass spectrometry.

Among the data in publication doi:10.1101/2024.05.08.592654 are fold more abundant with PNUTS^WT than with PNUTS^W726A values, retold here.

“PP1-87B (from UniProt P12982 1-302) (enzyme)” returned a fold more abundant with PNUTS^WT than with PNUTS^W726A of 12 fold.
